B1: Golgi to ER traffic protein 1 (Saccharomyces cerevisiae), P53192 (parent)
chain: MHWAAAVAIFFIVVTKFLQYTNKYHEKWISKFAPGNELSKKYLAKVKERHELKEFNNSISAQDNYAKWTKNNRKLDSLDKEINNLKDEIQSENKAFQAHLHKLRLLALTVPFFVFKIMYGKTPVYKLSSSTSTLFPTFVSGVWSQGWLYVLLHPLRTISQKWHIMEGKFGASKFDDMALQSVSLGIWVWALMNVINGVEFIVKQLFLTPKMEAPASVETQEEKALDAVDDAIILD
partner: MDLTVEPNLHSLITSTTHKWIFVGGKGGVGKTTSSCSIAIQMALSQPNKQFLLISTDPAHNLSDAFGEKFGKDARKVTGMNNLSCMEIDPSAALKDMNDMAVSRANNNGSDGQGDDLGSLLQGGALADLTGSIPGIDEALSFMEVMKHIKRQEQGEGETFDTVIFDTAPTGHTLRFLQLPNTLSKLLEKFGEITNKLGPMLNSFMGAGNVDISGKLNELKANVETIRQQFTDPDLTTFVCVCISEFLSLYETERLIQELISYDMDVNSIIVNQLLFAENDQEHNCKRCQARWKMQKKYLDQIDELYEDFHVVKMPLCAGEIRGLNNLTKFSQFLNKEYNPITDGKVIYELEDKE
B2: Golgi to ER traffic protein 2 (Saccharomyces cerevisiae), P40056 (parent)
chain: MSELTEAEKRRLLRERRQKKFSNGGASSRLNKITGQASSHLNAESPLDAPSAAKTTPPASVHSATPDIKEDSNVAPQLDLLKQLAAMQGQGTGKSTPQDSSTPDLLSLLSSMNTGMPSAEGTPSFGQAAPAAPINQAALDYHDYLLNRLKAWTILVKWVFFLLPYLYLITRPNSSVWPAYAFTQSAWFAPLRNPSNFTRIFATFEFLSISIYYQLLKNVEHKSKIKNLQDTNKLVKLVSLVPEGVIPVANLKGKLITLLQYWDLLSMLITDISFVLIVLGLLTYL
partner: B1 partner

Variants of: B1
Settings: with get3_yeast GET3, Q12154

| Variant | effect of a mutation on the interaction |
| --- | --- |
| R73E | disrupting interaction |

Variants of: B2
Settings: with get3_yeast GET3, Q12154

| Variant | effect of a mutation on the interaction |
| --- | --- |
| R17E | disrupting interaction |

From IntAct's records for PubMed 21866104
